In patent US20060094649A1:

Legend:
HLA-B*4001 (human) = test: competition with labeled probe peptide, purified HLA class I
HLA-B*4403 (human) = test: as above

IC50 (HLA-B*4001 (human)): 10.4 µM
IC50 (HLA-B*4403 (human)): 2.01 µM
Substance: SEQ ID NO 717, 7-mer of MAGE2 at position 234 (printed as WEELSML) (peptide)
